The target of this assay is T1, prostate-specific membrane antigen (PSMA) (human, UniProt Q04609 44-750, limits assumed, 125I-labelled in Examples 2 and 8 (site of iodination not stated); unlabelled in Examples 5 and 6).
T1 construct: also called purified recombinant PSMA
Put plainly: competition radioligand binding: 1 nM 125I-PSMA on plate-coated mimetope (SEQ ID NO:24), with 0 or 10 uM of the soluble peptide as competitor. How it is done:
For a typical competition binding experiment, the mimetope is coated to a solid support such as a 96-well plate by allowing 100 ul of a 10 uM solution of the mimetope (SEQ ID NO:24) in water to dry in the wells. The wells are then washed with TBST and blocked with 3% casein in TBST to minimize non-specific binding. The wells are then incubated with 1 nM ¹²⁵I-PSMA at a specific activity of about 80 000 dpm/pmol, containing 0 or 10 uM of alanine-mimetope. The plate is incubated O/N at 4° C. then the wells are rapidly washed with TBST to remove the unbound ligand fraction, and then counted in a gamma counter. The radioactivity counted in each wells represents the bound fraction of the ligand. An alanine-mimetope that binds to PSMA will thus reduce the binding of ¹²⁵I-PSMA to the coated (SEQ ID NO:24).

T1 sequence (Q04609 44-750 limits assumed): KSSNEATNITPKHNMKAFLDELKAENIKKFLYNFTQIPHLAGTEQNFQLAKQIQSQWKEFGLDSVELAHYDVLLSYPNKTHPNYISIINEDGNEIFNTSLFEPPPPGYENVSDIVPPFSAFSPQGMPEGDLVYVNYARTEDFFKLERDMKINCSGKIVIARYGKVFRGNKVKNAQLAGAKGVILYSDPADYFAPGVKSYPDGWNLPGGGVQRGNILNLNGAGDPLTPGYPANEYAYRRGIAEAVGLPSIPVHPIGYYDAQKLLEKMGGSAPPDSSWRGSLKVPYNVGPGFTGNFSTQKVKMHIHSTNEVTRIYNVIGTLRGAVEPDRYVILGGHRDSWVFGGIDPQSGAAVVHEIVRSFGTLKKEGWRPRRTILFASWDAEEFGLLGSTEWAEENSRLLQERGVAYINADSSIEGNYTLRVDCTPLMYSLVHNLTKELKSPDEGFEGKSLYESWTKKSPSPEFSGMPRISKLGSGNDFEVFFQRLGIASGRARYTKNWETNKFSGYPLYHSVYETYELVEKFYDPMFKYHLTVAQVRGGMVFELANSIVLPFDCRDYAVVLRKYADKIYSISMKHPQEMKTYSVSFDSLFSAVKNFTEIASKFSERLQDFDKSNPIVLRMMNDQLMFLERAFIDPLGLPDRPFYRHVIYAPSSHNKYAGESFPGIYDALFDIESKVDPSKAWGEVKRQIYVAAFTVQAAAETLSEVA

On to KQSYNAIT [PS68], for which the binding result is listed as “no binding (tested: 10 uM)”.
Turning to KQSYNFAT [PS69], the binding result is “no binding (tested: 10 uM)”.

The record behind these values is patent US20090131277A1 (PROSCAN RX PHARMA, published 2009).
